Laboratory results taken from patent US20240132587A1 (published 2024).
Numbering of substitutions follows the chain as printed.

B1: 008LYG_D08 IgG1 (antibody, V domains shown)
VH: QVQLVQSGAEVKKPGSSVKVSCKASGGTFSSYAISWVRQAPGQGLEWMGGIIPIFGTANYAQKFQGRVTITADESTSTAYMELSSLRSEDTAVYYCARGYQGMGVFDPWGQGTLVTVSS
VL: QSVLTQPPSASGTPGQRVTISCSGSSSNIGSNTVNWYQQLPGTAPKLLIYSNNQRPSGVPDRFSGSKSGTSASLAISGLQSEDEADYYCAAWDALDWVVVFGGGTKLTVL
B2: ZP1I16_D05 IgG1 (antibody, V domains shown)
VH: B1 VH with Y100F, Q101I, G102R, M103Y, P108Y
VL: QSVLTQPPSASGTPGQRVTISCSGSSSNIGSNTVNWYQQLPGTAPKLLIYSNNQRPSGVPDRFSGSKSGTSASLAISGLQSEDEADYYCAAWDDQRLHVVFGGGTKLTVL
B3: ZP1I18_B08 IgG1 (antibody, V domains shown)
VH: B1 VH with Y100F, Q101I, G102R, M103Y, P108Y
VL: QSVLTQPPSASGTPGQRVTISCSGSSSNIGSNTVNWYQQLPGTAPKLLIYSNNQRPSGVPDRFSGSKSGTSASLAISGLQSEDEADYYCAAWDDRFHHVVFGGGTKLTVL
B4: 008M0G_G03 IgG1 (antibody, V domains shown)
VH: B1 VH with Q101P, G102R, M103Y, P108Y
VL: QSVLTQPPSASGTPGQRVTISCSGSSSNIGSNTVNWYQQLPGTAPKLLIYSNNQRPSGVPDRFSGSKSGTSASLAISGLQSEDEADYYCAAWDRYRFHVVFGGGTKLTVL
B5: 008LY1_D04 IgG1 (antibody, V domains shown)
VH: B1 VH with Q101V, G102Q, M103Y, V105Y, P108Y
VL: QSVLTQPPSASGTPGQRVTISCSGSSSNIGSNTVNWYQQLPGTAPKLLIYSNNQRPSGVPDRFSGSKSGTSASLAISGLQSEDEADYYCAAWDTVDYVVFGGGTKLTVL

Target: T1, rat CLDN18.2 (rat, UniProt Q5I0E5 1-261)
T1 chain: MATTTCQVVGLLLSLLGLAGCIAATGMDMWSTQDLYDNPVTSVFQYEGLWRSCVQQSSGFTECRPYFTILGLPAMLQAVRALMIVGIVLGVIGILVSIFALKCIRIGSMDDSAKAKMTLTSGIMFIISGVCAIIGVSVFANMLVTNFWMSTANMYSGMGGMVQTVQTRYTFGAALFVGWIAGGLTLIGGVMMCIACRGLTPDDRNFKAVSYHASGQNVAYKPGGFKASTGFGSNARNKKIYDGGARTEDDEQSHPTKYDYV
Assay: flow cytometry, HEK293 cells
An EC50 of 99.1 nM was found for B1 in this work. An EC50 of 11.8 nM was found for B2 in this work. An EC50 of 10.5 nM was found for B3 in this work. An EC50 of 11.1 nM was found for B4 in this work.

What follows are binders tested against human CLDN18.2 (human, UniProt P56856 1-261) (assay: flow cytometry, HEK293 cells).
Sequence of human CLDN18.2 (P56856 other isoform, or with tags, fused parts or gaps): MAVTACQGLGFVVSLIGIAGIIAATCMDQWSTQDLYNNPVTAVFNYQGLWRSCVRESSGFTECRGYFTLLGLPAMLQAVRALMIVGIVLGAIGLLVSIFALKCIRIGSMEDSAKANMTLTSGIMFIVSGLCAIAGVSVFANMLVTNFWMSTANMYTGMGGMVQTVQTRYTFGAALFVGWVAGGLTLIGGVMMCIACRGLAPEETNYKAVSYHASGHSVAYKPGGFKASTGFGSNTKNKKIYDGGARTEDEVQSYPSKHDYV
An EC50 of 92.6 nM was found for B1 in this work. An EC50 of 7.89 nM was found for B2 in this work. An EC50 of 13.1 nM was found for B3 in this work. An EC50 of 8.55 nM was found for B4 in this work. An EC50 of 9.07 nM was found for B5 in this work.

Target: T2, mouse CLDN18.2 (mouse, UniProt P56857 1-264)
T2 chain: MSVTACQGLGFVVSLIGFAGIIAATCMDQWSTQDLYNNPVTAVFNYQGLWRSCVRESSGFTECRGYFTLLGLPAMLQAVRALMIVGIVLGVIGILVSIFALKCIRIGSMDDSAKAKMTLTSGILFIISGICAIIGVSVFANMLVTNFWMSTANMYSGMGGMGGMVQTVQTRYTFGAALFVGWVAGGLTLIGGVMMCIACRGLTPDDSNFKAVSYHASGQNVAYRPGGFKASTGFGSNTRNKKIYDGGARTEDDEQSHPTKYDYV
Assay: flow cytometry, HEK293 cells
An EC50 of 81.3 nM was found for B1 in this work.
